pKd: −log10 of the molar value.
target: PP2A scaffolding subunit PR65α, full length (UniProt P30153); experiment: MST; NT-647-NHS-labelled PP2A subunit at 20 nM as target, 12-point twofold dilution series of unlabelled ARPP as ligand; SEC buffer with 0.05% Tween-20; triplicate; single-site binding model
Sequence (P30153 whole entry): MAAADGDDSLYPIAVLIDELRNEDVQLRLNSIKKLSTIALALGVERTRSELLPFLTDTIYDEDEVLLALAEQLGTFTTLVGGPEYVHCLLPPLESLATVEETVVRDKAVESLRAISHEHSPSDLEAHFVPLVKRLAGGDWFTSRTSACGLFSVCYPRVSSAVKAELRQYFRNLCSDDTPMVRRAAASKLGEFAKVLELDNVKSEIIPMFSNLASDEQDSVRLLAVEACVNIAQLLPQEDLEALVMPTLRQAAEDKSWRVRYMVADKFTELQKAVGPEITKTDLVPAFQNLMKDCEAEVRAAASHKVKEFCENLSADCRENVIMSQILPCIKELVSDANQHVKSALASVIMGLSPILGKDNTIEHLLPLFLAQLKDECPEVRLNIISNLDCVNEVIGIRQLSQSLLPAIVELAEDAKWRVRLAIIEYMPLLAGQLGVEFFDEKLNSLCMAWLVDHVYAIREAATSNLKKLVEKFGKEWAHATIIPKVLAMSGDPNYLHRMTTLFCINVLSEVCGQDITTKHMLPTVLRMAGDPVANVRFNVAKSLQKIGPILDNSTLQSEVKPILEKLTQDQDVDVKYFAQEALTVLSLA

pKd	Substance
5.27	ARPP-16 (splice variant of ARPP-19), wild type (natural protein)
6.00	ARPP-16 S46E phosphomimicking mutant (natural protein)
5.48	ARPP-16 S88E phosphomimicking mutant (natural protein)

target: PP2A regulatory subunit B56γ; experiment: as above
Sequence (Q13362 whole entry): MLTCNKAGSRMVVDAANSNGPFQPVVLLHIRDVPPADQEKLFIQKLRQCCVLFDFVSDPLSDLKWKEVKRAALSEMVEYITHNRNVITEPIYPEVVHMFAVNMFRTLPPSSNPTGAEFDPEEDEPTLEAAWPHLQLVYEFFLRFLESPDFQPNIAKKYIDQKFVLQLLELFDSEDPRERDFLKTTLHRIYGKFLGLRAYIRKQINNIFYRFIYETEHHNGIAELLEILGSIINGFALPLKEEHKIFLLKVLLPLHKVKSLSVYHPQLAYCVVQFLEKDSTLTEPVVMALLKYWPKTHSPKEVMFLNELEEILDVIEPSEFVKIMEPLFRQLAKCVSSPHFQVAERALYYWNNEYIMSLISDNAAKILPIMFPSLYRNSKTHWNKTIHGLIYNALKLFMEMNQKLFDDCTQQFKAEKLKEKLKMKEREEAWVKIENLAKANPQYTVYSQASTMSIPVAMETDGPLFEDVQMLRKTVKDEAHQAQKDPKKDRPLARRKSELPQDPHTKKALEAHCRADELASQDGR

pKd	Substance
3.15	ARPP-16 (splice variant of ARPP-19), wild type (natural protein)
3.36	ARPP-16 S46E phosphomimicking mutant (natural protein)
3.70	ARPP-16 S88E phosphomimicking mutant (natural protein)

target: PP2A regulatory subunit B56α; experiment: as above
Sequence (Q15172 whole entry): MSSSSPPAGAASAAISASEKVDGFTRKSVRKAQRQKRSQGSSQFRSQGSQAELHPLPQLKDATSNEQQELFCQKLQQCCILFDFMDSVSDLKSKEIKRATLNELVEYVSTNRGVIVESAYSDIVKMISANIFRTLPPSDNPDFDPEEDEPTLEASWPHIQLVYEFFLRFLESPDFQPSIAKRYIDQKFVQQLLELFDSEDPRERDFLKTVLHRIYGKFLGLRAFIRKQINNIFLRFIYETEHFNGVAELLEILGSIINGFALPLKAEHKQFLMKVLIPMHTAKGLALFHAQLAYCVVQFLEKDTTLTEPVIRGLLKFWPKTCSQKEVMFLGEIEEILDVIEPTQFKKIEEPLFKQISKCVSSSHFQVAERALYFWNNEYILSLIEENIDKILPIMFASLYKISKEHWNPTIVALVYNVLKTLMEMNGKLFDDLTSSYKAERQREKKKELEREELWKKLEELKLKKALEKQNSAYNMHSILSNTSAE

pKd	Substance
4.10	ARPP-16 (splice variant of ARPP-19), wild type (natural protein; other documents disagree on this pair)
3.96	ARPP-16 S46E phosphomimicking mutant (natural protein; other documents disagree on this pair)
3.89	ARPP-16 S88E phosphomimicking mutant (natural protein; other documents disagree on this pair)

From article PMC8032985
